# Values quoted from earlier work, collected in publication PMC10966181.
# Molecular target: Tyr159 (UniProt position 159, ISIHVYGANIG)
# Assay: kinetics
# Details: Catalytically active Fe(II)-MDO turning over the substrate 3MPA
row,Substance,pKa
1,3-mercaptopropionate dioxygenase (MDO) H157N variant (Azotobacter vinelandii; H157N),9.9 ± 0.1
2,"3-mercaptopropionate dioxygenase (MDO, AvMDO) (Azotobacter vinelandii)",9.2 ± 0.1
